Laboratory results as given in patent publication US20230279115A1 (MABWELL SHANGHAI BIOSCIENCE, published 2023).
Where a chain is given by its changes, count along the chain named.

B1: KN035 (fusion protein of the KN035 variable region and Fc) (Fc fusion)
chain: QVQLVESGGGLVQPGGSLRLSCAASGKMSSRRCMAWFRQAPGKERERVAKLLTTSGSTYLADSVKGRFTISRDNSKNTVYLQMNSLRAEDTAVYYCAADSFEDPTCTLVTSSGAFQYWGQGTLVTVSS
notes: Built by the same strategy as chF2; also called Envafolimab; control antibody; not shown: human Fc (IgG1, hFc) from the same expression vector and strategy as chF2
B2: hzF2-m9 (VHH)
VHH: EVQLVESGGGLVQPGGSLRLSCAASRDSDEGASCMGWFRQAPGKEREGVAIIFNAGERTDYGDSVKGRFTISRDNAKNTLYLQMNSLRAEDTAVYYCATVWCGSWVARSWGQGTLVTVSS
notes: also called humanized single variable domain antibody hzF2-m9
B3: hzF2-m1 (VHH)
VHH: B2 VHH with E30D, C34S, E45G, R46L, C102S
notes: The parent hzF2 is a VHH-human IgG1 Fc fusion; also called humanized single variable domain antibody hzF2-m1
B4: hzF2-m2 (VHH)
VHH: B2 VHH with R26G, E30D, E45G, R46L
notes: The parent hzF2 is a VHH-human IgG1 Fc fusion; also called humanized single variable domain antibody hzF2-m2
B5: hzF2-m4 (VHH)
VHH: B2 VHH with D29N, E30D, E45G, R46L
notes: The parent hzF2 is a VHH-human IgG1 Fc fusion; also called humanized single variable domain antibody hzF2-m4
B6: hzF2-m8 (VHH)
VHH: B2 VHH with E30D, A55V
notes: also called humanized single variable domain antibody hzF2-m8
B7: hzF2-m3 (VHH)
VHH: B2 VHH with D29S, E30S, E45G, R46L
notes: The parent hzF2 is a VHH-human IgG1 Fc fusion; also called humanized single variable domain antibody hzF2-m3
B8: hzF2-m7 (VHH)
VHH: B2 VHH with E30D, G31S, E45G, R46L
notes: The parent hzF2 is a VHH-human IgG1 Fc fusion; also called humanized single variable domain antibody hzF2-m7
B9: hzF2-m14 (VHH)
VHH: B2 VHH with A55V, W101Y, W105Y
notes: Framework 2 is KEREG; also called humanized single variable domain antibody hzF2-m14
B10: hzF2-m11 (VHH)
VHH: B2 VHH with E30D, W101Y, W105Y
notes: Framework 2 is KEREG; also called humanized single variable domain antibody hzF2-m11
B11: hzF2-m10 (VHH)
VHH: B2 VHH with E30D, W101Y
notes: Framework 2 is KEREG; also called humanized single variable domain antibody hzF2-m10
B12: hzF2-m16 (VHH)
VHH: B2 VHH with A55V, W101F, W105F
notes: Framework 2 is KEREG; also called humanized single variable domain antibody hzF2-m16
B13: hzF2-m15 (VHH)
VHH: B2 VHH with A55V, W101F, W105Y
notes: Framework 2 is KEREG; also called humanized single variable domain antibody hzF2-m15
B14: hzF2-m12 (VHH)
VHH: B2 VHH with A55V
notes: Framework 2 is KEREG; also called humanized single variable domain antibody hzF2-m12
B15: hzF2-m13 (VHH)
VHH: B2 VHH with E30D, W101F, W105F
notes: Framework 2 is KEREG; also called humanized single variable domain antibody hzF2-m13

These binders were tested against T1, monkey PD-L1 recombinant protein (monkey) (assay: BLI (Octet QKe), antibody captured on AHC probe, antigen 60 nM).
T1 construct: also called recombinant monkey PD-L1
Experimental: (§1) The Octet QKe system instrument from Fortebio Company was used to determine whether chF2 could bind to recombinant monkey PD-L1 and recombinant murine PD-L1 by using the capture antibody (AHC) biological probe of anti-human antibody Fc segment to capture the Fc segment of the antibody. During the measurement, chF2 was diluted to 4 µg/mL with PBS buffer and flowed over the surface of AHC probe (PALL, Cat.: 18-0015) for 120 s. The monkey PD-L1 recombinant protein and the murine PD-L1 recombinant protein were used as mobile phases to interact with the antibodies captured on the surface of the chip. The PD-L1 recombinant protein concentration was 60 nM. The binding time of each antigen was 300 s, and the final dissociation time was 300 s.

Row | Kd [nM] | koff [s⁻¹] | kon [M⁻¹ s⁻¹] | Binder
1 | 1.32 | 0.000281 | 213000 | B1

Each binder was assayed against T2, human PD-L1 recombinant protein (human, UniProt Q9NZQ7 19-238) (assay: BLI, human PD-L1 recombinant protein).
T2 construct: also called recombinant PD-L1 protein; recombinant PD-L1
T2 sequence (Q9NZQ7 19-238 limits assumed): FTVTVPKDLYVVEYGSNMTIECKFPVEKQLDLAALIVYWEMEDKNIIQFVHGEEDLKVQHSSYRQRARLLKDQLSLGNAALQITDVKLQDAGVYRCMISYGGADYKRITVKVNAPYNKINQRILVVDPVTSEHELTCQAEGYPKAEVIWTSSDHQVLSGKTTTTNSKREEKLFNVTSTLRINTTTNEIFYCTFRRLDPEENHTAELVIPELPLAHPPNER

Row | Kd [nM] | koff [s⁻¹] | kon [M⁻¹ s⁻¹] | Binder
2 | 1.34 | 0.000434 | 324000 | B2
3 | 2.8 | 0.0019 | 679000 | B3
4 | 1.26 | 0.000709 | 562000 | B4
5 | 9.36 | 0.0065 | 695000 | B5
6 | 1.18 | 0.000419 | 356000 | B6
7 | 7.8 | 0.00487 | 624000 | B7
8 | 4.59 | 0.00157 | 341000 | B8

These binders were tested against T3, human PD-L1 expressed on the cell surface (human, UniProt Q9NZQ7 19-290) (assay: cell-based or functional assay).
T3 sequence (Q9NZQ7 19-290): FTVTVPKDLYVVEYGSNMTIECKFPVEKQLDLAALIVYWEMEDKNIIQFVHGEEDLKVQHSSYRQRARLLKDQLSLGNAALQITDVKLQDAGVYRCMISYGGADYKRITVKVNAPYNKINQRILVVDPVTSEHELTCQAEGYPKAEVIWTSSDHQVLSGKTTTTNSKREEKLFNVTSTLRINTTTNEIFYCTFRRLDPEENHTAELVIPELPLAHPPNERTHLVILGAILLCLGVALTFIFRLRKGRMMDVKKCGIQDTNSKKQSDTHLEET

Row | Reporter Gene Assay (Jurkat-PD1-NFAT cells and CHO-PD-L1-CD3L cells), luciferase RLU, EC50 [nM] | Binder
9 | 4.9 | B1

These binders were tested against T4, PD-L1-mFc (human, UniProt Q9NZQ7 19-238) (assay: blocking ELISA: PD-1-hFc coated at 0.5 µg/mL, 0.5 µg/mL PD-L1-mFc co-incubated with the titrated binder (50 nM, 1.5-fold, 10 points), detection with HRP-anti-mouse Fc; blocked partner PD-1-hFc).
T4 construct: range 19-238; not shown: mouse Fc (mFc)
Experimental: Human PD-1-hFc (PD-1 Sequence No. NP_005009.2, 21aa-167aa) was diluted with PBS to 0.5 µg/mL, coated on an ELISA plate overnight at 4° C. Then the plate was blocked with 5% BSA for 60 min at 37° C. in a thermostatic incubator. Gradient dilutions of hzF2 and control antibody KN035, and an isotype control NC-hIgG1 (initial working concentration of 50 nM, 1.5-fold dilution to 10 concentration gradients), were added, then PD-L1-mFc (PD-L1 Sequence No. NP_054862.1, 19aa-238aa) was added at a working concentration of 0.5 µg/mL, co-incubated and reacted in a thermostatic incubator at 37° C. for 60 min. The plate was washed 4 times with PBST; then added 1:5000 diluted HRP-anti-mouse Fc (Cat.:115-035-071, Jackson Immuno Research) thereto, reacted for 45 min, and added TMB (Beijing Taitianhe Biology, Cat.: ME142) substrate to develop color for 15 min. After adding 2 M HCl to stop the reaction, the plate was read and recorded about the absorbance value of A450nm-630nm of the well plate by a reader taking 630 nm as the reference wavelength, and 450 nm as the detection wavelength.

T4 sequence (Q9NZQ7 19-238 limits assumed): as the sequence (Q9NZQ7 19-238 limits assumed) above

Row | IC50 [nM] | Binder
10 | 8.1 | B1

The binders below were run against T5, murine PD-L1 recombinant protein (murine, UniProt Q9EP73 19-238, limits assumed) (assay: BLI (Octet QKe), antibody captured on AHC probe, antigen as mobile phase).
T5 construct: also called recombinant murine PD-L1
Experimental: as §1

T5 sequence (Q9EP73 19-238 limits assumed): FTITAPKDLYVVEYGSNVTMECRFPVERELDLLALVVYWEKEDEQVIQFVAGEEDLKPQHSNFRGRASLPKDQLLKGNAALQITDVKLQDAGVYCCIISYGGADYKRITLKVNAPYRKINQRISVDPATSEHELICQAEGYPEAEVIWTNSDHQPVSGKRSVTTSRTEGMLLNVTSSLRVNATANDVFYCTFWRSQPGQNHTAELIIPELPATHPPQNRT

Row | binding result | Binder
11 | no binding (tested: 60 nM) | B1

Each binder was assayed against T3, human PD-L1 expressed on the cell … (assay: flow cytometry on CHO-PD-L1-CD3L cells, FITC anti-human Fc).
Experimental: Cells (CHO-PD-L1-CD3L cells) were collected after centrifugation, divided into 5×10⁵ cells/sample/100 µL. Gradient diluted single variable domain antibody was added to the cells at a final concentration of 66 nM as the highest concentration, 3-fold serial dilution to make 10 gradients; then incubated on ice for 2h. The cells were washed twice with ice-cold PBS (containing 0.05% Tween). FITC-labeled anti-human Fc secondary antibody (Cat.: F9512, Sigma) was added, and incubated on ice for 1h. The cells were washed twice with ice-cold PBS (containing 0.05% Tween), resuspended in 200 µL of Flow Cytometry Buffer, and the mean fluorescence intensity (MFI) of the cells was detected by flow cytometer (Model B49007AD, SNAW31211, BECKMAN COULTER).

Row | EC50 [nM] | Binder
12 | 1.27 | B1

These binders were tested against T2, human PD-L1 recombinant protein (assay: BLI (method per paragraph 89); target not given, taken as human PD-L1 recombinant protein).

Row | Kd [nM] | Binder
13 | 1.34 | B2
14 | 3.81 | B9
15 | 3.24 | B10
16 | 4.31 | B11
17 | 3.18 | B12
18 | 2.8 | B3
19 | 1.26 | B4
20 | 9.36 | B5
21 | 4.75 | B13
22 | 1.54 | B14
23 | 1.18 | B6
24 | 7.8 | B7
25 | 4.26 | B15
26 | 4.59 | B8

Each binder was assayed against T2, human PD-L1 recombinant protein (assay: BLI (Octet QKe), antibody captured on AHC probe, PD-L1 60 nM).
Experimental: Using the Octet QKe system instrument from Fortebio Company, the ability of chF2 to bind corresponding recombinant antigen was determined by using the capture antibody (AHC) biological probe against the Fc fragment of the human antibody to capture the Fc fragment of the antibody. During the measurement, chF2 was diluted with PBS buffer to 4 µg/mL, and flowed over the surface of AHC probe (Cat.: 18-0015, PALL) for 120 s. A human PD-L1 recombinant protein was used as the mobile phase to interact with the antibody captured on the chip surface. The recombinant PD-L1 protein concentration was 60 nM. The binding time for each antigen was 300 s, and the final dissociation time was 300 s.

Row | Kd [nM] | koff [s⁻¹] | kon [M⁻¹ s⁻¹] | Binder
27 | 1.5 | 0.00035 | 233000 | B1
